Data reported in patent publication US20210077575A1 (CEDARS SINAI MEDICAL CENTER, published 2021).

Biological target: T1, HER3 (human, UniProt P21860 20-1342)
T1 construct: whole, on cells; Endogenous receptor on tumour cell lines; also called ErbB3; Human ErbB3/HER3
Assay: confocal immunofluorescence, SK-MEL-2 cells treated with HerPBK10-GFPD10 nanoparticles, 0 minutes
Procedure: The cells were counterstained using DAPI to stain the nucleus and rhodamine phalloidin to stain actin.
Images were taken after 0, 15, 30, 60, and 120 minutes using confocal microscopy.

T1 sequence (P21860 20-1342): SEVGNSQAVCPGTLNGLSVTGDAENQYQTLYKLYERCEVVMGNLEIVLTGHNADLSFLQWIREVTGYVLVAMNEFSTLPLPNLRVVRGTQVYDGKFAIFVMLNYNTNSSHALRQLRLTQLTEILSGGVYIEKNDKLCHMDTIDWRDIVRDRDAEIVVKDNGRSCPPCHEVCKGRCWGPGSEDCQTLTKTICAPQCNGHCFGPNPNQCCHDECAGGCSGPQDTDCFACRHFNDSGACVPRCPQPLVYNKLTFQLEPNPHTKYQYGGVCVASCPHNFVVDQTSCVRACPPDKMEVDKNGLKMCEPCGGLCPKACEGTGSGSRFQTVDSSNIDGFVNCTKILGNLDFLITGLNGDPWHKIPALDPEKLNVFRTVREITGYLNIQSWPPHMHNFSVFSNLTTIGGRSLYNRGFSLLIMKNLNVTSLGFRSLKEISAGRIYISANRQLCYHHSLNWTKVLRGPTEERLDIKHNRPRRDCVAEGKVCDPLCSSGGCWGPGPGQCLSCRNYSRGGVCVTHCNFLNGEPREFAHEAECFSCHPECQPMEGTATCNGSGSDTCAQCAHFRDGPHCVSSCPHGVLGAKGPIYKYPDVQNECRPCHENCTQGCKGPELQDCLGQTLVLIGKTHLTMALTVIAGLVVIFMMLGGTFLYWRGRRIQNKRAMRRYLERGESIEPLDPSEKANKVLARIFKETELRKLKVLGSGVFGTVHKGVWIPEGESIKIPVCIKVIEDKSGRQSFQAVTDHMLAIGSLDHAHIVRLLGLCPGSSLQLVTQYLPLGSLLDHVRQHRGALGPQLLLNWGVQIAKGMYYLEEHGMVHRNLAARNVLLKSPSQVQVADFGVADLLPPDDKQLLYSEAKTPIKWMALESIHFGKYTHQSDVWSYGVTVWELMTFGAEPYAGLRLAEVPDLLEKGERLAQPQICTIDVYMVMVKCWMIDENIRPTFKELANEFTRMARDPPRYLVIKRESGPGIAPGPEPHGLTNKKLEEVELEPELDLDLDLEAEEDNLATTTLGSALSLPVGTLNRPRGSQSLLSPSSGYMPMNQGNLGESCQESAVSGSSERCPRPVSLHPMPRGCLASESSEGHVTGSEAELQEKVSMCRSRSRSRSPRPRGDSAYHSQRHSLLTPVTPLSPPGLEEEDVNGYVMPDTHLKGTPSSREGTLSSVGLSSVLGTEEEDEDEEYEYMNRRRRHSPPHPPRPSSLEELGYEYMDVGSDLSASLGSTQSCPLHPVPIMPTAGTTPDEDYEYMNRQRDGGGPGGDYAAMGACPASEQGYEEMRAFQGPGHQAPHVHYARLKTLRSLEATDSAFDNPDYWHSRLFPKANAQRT

B1: HerPBK10 carrier polypeptide comprising a Her cell-targeting segment, a penton base (PB) segment, a decalysine (K10) binding segment, and an N-terminal … (other)
chain: MRGSHHHHHHGMASMTGGQQMGRDLYDDDDKDRWGSELLPPQLKEMKSQESAAGSKLVLRCETSSEYSSLRFKWFKNGNELNRKNKPQNIKIQKKPGKSELRINKASLADSGEYMCKVISKLGNDSASANIAIVESNEIITGMPASTEGAYVSSESPIRISVSTEGANTSSSTSTSTTGTSHLVKCAEKEKTFCVNGGECFMVKDLSNPSRYLCKCQPGFTGARCTENVPMKVQNQEKAEELYGGSGGSRSMRRAAMYEEGPPPSYESVVSAAPVAAALGSPFDAPLDPPFVPPRYLRPTGGRNSIRYSELAPLFDTTRVYLVDNKSTDVASLNYQNDHSNFLTTVIQNNDYSPGEASTQTINLDDRSHWGGDLKTILHTNMPNVNEFMFTNKFKARVMVSRLPTKDNQVELKYEWVEFTLPEGNYSETMTIDLMNNAIVEHYLKVGRQNGVLESDIGVKFDTRNFRLGFDPVTGLVMPGVYTNEAFHPDIILLPGCGVDFTHSRLSNLLGIRKRQPFQEGFRITYDDLEGGNIPALLDVDAYQASLKDDTEQGGGGAGGSNSSGSGAEENSNAAAAAMQPVEDMNDHAIRGDTFATRAEEKRAEAEAAAEAAAPAAQPEVEKPQKKPVIKPLTEDSKKRSYNLISNDSTFTQYRSWYLAYNYGDPQTGIRSWTLLCTPDVTCGSEQVYWSLPDMMQDPVTFRSTRQISNFPVVGAELLPVHSKSFYNDQAVYSQLIRQFTSLTHVFNRFPENQILARPPAPTITTVSENVPALTDHGTLPLRNSIGGVQRVTITDARRRTCPYVYKALGIVSPRVLSSRTFKKKKKKKKKK
B1: binds.
